We go through one molecule from patent US20220025003A1, “REAGENTS AND METHODS FOR CONTROLLING PROTEIN FUNCTION AND INTERACTION” (University of Washington, priority 2018, published 2022).

The target in one assay is T1, NS3a/asunaprevir complex (Hepatitis C virus genotype 1a, UniProt P27958, C1073S/C1078L/C1185S/I1043Q/I1044E/I1098T/L1039E/L1040E/L1047Q/L1179I/N1200S/P1112Q/Q1106K/T1100M/T1173A).
T1 construct: made in house; host or cells: E. coli BL21 (DE3), pDW363 with BirA
Description: Yeast surface display binding and titration. From the text: (§1) ; these sorts are denoted as “avid” below. […] See FIG. 30a for yeast gating strategies.
(§2) […]. Curves were fit using Graphpad Prism 5 to a one-site specific binding model with Hill coefficient.

The next assay concerns the target T2, NS3a/danoprevir complex (Hepatitis C virus genotype 1a, UniProt P27958, C1073S/C1078L/C1185S/I1043Q/I1044E/I1098T/L1039E/L1040E/L1047Q/L1179I/N1200S/P1112Q/Q1106K/T1100M/T1173A).
T2 construct: made in house; host or cells: E. coli BL21 (DE3), pDW363 with BirA
Description: Yeast surface display binding and titration.
Source text: as §1, §2

The next assay has as its target T3, NS3a/grazoprevir complex (Hepatitis C virus genotype 1a, UniProt P27958, C1073S/C1078L/C1185S/I1043Q/I1044E/I1098T/L1039E/L1040E/L1047Q/L1179I/N1200S/P1112Q/Q1106K/T1100M/T1173A).
T3 construct: made in house; host or cells: E. coli BL21 (DE3), pDW363 with BirA
As to the kind of experiment: Yeast surface display binding and titration.
Source text: as §1, §2

Another assay concerns NS3a in NIH3T3 cells. Description: Confocal microscopy for colocalization analysis (fixed cells). It is filed as cell-based. Particulars: 10 μM drug, 1 h. On the procedure: A Leica SP8× system was used for confocal microscopy. […] TagBFP emission was recorded on a PMT detector, and EGFP and mCherry™ were detected by separate HyD™ detectors.
Colocalization experiments were performed in NIH3T3 cells (Flp-In-3T3, Thermo Fisher Scientific). For fixed-cell experiments, cells were plated at 3×10^4 cells/mL on sterile glass coverslides placed in 12-well culture plates. […] One day after transfection, cells were treated with drug or DMSO and fixed. Drug additions were performed by exchanging the media for DMEM+10% v/v FBS plus drug. To fix, cells were washed once with DPBS (Thermo Fisher Scientific), then incubated with 4% v/v paraformaldehyde in DPBS for 15 minutes. After washing twice with DPBS, coverslides with cells were removed from the plate and mounted on glass slides using Fluoromount-G (SouthernBiotech).
Colocalization of NS3a and DNCR1 at the plasma membrane, nucleus, mitochondria and Golgi was performed with two sets of constructs, with either NS3a or DNCR1 as the immobilized component. mCherry™-NS3a was used with Tom20-DNCR1-EGFP, DNCR1-EGFP-Giantin, and 3×NLS-DNCR1-EGFP. […] Colocalization was analyzed after 1 h of 10 μM drug or equal volume DMSO treatment.
All images were analyzed using ImageJ. […] EGFP fluorescence was quantified in the ROI over the timecourse. […] The cytoplasmic fluorescence was normalized to the value in the first and last frame for each cell. […]

B1: DNCR1: danoprevir/NS3a complex reader 1, intermediate-affinity variant, SEQ ID NO: 9 (protein)
chain: SSDEEEARELIERAKEAAERAQEAAERTGDPRVRELARELKRLAQEAAEEVKRDPSSSDVNEALKLIVEAIEAAVDALEAAERTGDPEVRELARELVRLAVEAAEEVQRNPSSSDVNEALLSIVIAIEAAVHALEAAERTGDPEVRELARELVRLAVEAAEEVQRNPSSREVEHALMKIVLAIYEAEESLREAEESGDPEKREKARERVREAVERAEEVQRDPSGWLNH
B1: the Kd with NS3a/asunaprevir complex (apparent, yeast-displayed design, NS3a/asunaprevir complex, read-out: KD (nM) ± standard deviation) was 6300 ± 2600 nM; with NS3a/danoprevir complex (apparent, yeast-displayed design, NS3a/danoprevir complex, read-out: KD (nM) ± standard deviation), 190 ± 10 nM; with NS3a/grazoprevir complex (apparent, yeast-displayed design, NS3a/grazoprevir complex, read-out: KD (nM) ± standard deviation), 2900 ± 100 nM. In addition, the Fold drug specificity with NS3a/asunaprevir complex (danoprevir/NS3a over asunaprevir/NS3a) came to 33 fold; with NS3a/grazoprevir complex (danoprevir/NS3a over grazoprevir/NS3a) it was 15 fold. Moreover, the “binding to NS3a/danoprevir complex” value with NS3a/danoprevir complex (yeast surface display) was “high nanomolar affinity”. In addition, in the assay with NS3a in NIH3T3 cells, the “Colocalization of DNCR1-EGFP and NS3a-mCherry” value is listed as “functional binding specificity for the danoprevir/NS3a complex”.
